Measurements from the DeepSol protein solubility set.

Assay: soluble on expression in E. coli; label from the status in PepcDB or PDB records

Sequence	soluble on expression in E. coli
MAKKPSKKKVKRQVASGRAYIHASYNNTIVTITDPDGNPITWSSGGVIGYKGSRKGTPYAAQLAALDAAKKAMAYGMQSVDVIVRGTGAGREQAIRALQASGLQVKSIVDDTPVPHNGCRPKKKFRKAS	soluble
MAKKSSGSAPSRASGRSGKQTTHFQVVHDATKHRAKRSKSSKSGDSKSSSQDASVKKILDHKLFNTHYVEYNVLLSNGRKMMATEFDFEGKKEQKLLADYKYKITNQDDDPDEDFAVEKIIAHRFSGKKNKPLFLVMWRGYPNPVSHSEMWENELSNCKDLLEAYKDSHDMKPPPVKKSNKKKGSKKSPKKSAKSKDDDSSDEEEEEEVKEKSPKKSSKSTKRAASDDDEEEEPVATKKSKKSKRAETPEEEDDEEEEVVKTPKKTKKSKRAETPEEEDEVEEEVVKTPKKSKSSKSPKKSKRAETSDEEDEDEEDEKEAPKSSKKQEKAKSSKRVAEDSGNEEEDQDNTSGSGSEGEEEEEEASSNGKRKSRH	not soluble
MAKKTSSKGKLPPGPFPLPIIGNLFQLELKNIPKSFTRLAQRFGPVFTLYVGSQRMVVMHGYKAVKEALLDYKDEFSGRGDLPAFHAHRDRGIIFNNGPTWKDIRRFSLTTLRNYGMGKQGNESRIQREAHFLLEALRKTQGQPFDPTFLIGCAPCNVIADILFRKHFDYNDEKFLRLMYLFNENFHLLSTPWLQLYNNFPSFLHYLPGSHRKVIKNVAEVKEYVSERVKEHHQSLDPNCPRDLTDCLLVEMEKEKHSAERLYTMDGITVTVADLFFAGTETTSTTLRYGLLILMKYPEIEEKLHEEIDRVIGPSRIPAIKDRQEMPYMDAVVHEIQRFITLVPSNLPHEATRDTIFRGYLIPKGTVVVPTLDSVLYDNQEFPDPEKFKPEHFLNENGKFKYSDYFKPFSTGKRVCAGEGLARMELFLLLCAILQHFNLKPLVDPKDIDLSPIHIGFGCIPPRYKLCVIPRSHHHH	soluble
MAKRPSTSKNPAEDDELIIDECRRKLDDDESNDVGAYFEDDNQQGTSYRTPFMPSHLGLIQDQSPDLTMKDLFNRKRSRPQSTGFIDHSQARYYDRYKQQEYTRRNDFMKYCHVCRKKTVGKLRVLPGDLRMRKVWILRSNLDEERSAELWLREMACEGSHGGEFCEAHFPAGSQHMKGNQLIPLDVRPEEGRHSVVEDIQFDFDAIHLQCVFCGRDGPLATMLPFIRNRAKRLRWIEQLASGNETYKNRLLHALRGGVTQFLCDYHISDSSFEINGFGEWRLLKNALPDPRLVASDKRGERKYLVDKCRDEMFWERAMWKSADLLSQNGTADDEDIIVGDDIRQFLTNSVPSEAEQVLHPILQIKQNVEKKLNEADLQPGTSGTSGESNATADNLKIGISEEGVEYSDDSDEENELIEKMGDIPYSKRLCQVCSAVEPIGNEFPNNFPYKFSIRTWPFDECRHKKWLEIMDWPPEFEESMKTLWQKRKTEGALSDSYHFCPINVCQSHLDFRQLPERMEEWHQTFCLLCDTCMSDKSFLVGIPHNFETRTKWANSLFPVKEGNKFQLKKISWLRRRFLRSKPTRYRICVYHFNRKAFQVNQDDKIVLDAEALPLPIDSDDFDLTPRGPNSVCKCVLCDDWKKVEDMVPFRAPHSEAERSFLIDIVIHSDKMTIKKALASLAKTNRPALICNIHFPDGIDPFSIIAERRLMYGVQSECVLCAHANDCTAMIPFPGPDDEKLRTKWINSMCREPWIYRYLSTRLEKPGRHYLCASHFNRNSLRYHAGLGLWRRAAACPVLACTTDEERQEVWDLSKSQPLYHPLILETFDDNGSGRLDYDDVLNFLGTERMRQIETELNFHGRNDSLLRRENRKKNTGRSFYADMPNIYEHGELQEVEDQMEGEEEEVVQEECIIYEEEHHLDEAEELEVIEEEEVVEEIVEQVVDDGVVVGEEM	not soluble
MAKTLYEKLFDSHIVYEAEGETPILYINRHLIHEVTSPQAFDGLRVANRQVRQVNKTFGTMDHSISTQVRDVNKLEGQAKIQVLELDKNTKATGIKLFDITTKEQGIVHVMGPEQGLTLPGMTIVCGDSHTATHGAFGALAFGIGTSEVEHVLATQTLKQARAKSMKIEVRGKVASGITAKDIILAIIGKTTMAGGTGHVVEFCGEAIQDLSMEGRMTVCNMAIEMGAKAGLIAPDETTFAYLKDRPHAPKGKDWEDAVAYWKTLKSDDDAQFDTVVTLEAKDIAPQVTWGTNPGQVISVNETIPNPQEMADPVQRASAEKALHYIGLEAGTNLKDIKVDQVFIGSCTNSRIEDLRAAAAVMKGRKKADNVKRILVVPGSGLVKEQAEKEGLDKIFIAAGAEWRNPGCSMCLGMNDDRLGEWERCASTSNRNFEGRQGRNGRTHLVSPAMAAAAGVFGKFVDIRDVTLN	not soluble
MALAEADDGAVVFGEEQEALVLKSWAVMKKDAANLGLRFFLKVFEIAPSAKQMFSFLRDSDVPLEKNPKLKTHAMSVFVMTCEAAAQLRKAGKVTVRETTLKRLGATHLRYGVADGHFEVTGFALLETIKEALPADMWSLEMKKAWAEAYSQLVAAIKREMKPDA	soluble
MALAMNRSITAITVTHNSAHTVRGALARLPPGVEIVCVDNASTDDLSTALSDLAVHRIDNPVNLGFGRACNIGAAAATGEYLLFINPDVRLGTDAVDALLQAAERYPNCGVFVPRTNTVDGRLWFREESEIDRLSGVSLPTRIRQVWGDCCVRFVNGGVFMIKRTLFLDTGGFDEDIFLYFEDDDLSYRLLQRDEPMILVSGAHAVHDIGTSVAQSTRSRIFRYRSKMRSEIHLRKKYGIAYSPFVDILRYSTKIGFYCLTLNRNRLINSLGRLIGIFDSILDRSRANRNGGYVALEHHHHHH	not soluble
MALDANDLLPPEKAFVPELAVADDGVNVRFRIADGYYMYQAKIVGKTNPADLLGQPSFSKGEEKEDEFFGRQTVYHHEAQVAFPYAKAVGEPYKLVLTYQGSAEAGVCYPPVDTEFDIFGNGTYHPQT	soluble
MALETPTPGPPREGQSPASQAGTQHPPAQATAHSQSSPEFKGSLASLSDSLGVSVMATDQDSYSTSSTEEELEQFSSPSVKKKPSMILGKARHRLSFASFSSMFHAFLSNNRKLYKKVVELAQDKGSYFGSLVQDYKVYSLEMMARQTSSTEMLQEIRTMMTQLKSYLLQSTELKALVDPALHSEEELEAIVESALYKCVLKPLKEAINSCLHQIHSKDGSLQQLKENQLVILATTTTDLGVTTSVPEVPMMEKILQKFTSMHKAYSPEKKISILLKTCKLIYDSMALGNPGKPYGADDFLPVLMYVLARSNLTEMLLNVEYMMELMDPALQLGEGSYYLTTTYGALEHIKSYDKITVTRQLSVEVQDSIHRWERRRTLNKARASRSSVQDFICVSYLEPEQQARTLASRADTQAQALCAQCAEKFAVERPQAHRLFVLVDGRCFQLADDALPHCIKGYLLRSEPKRDFHFVYRPLDGGGGGGGSPPCLVVREPNFL	soluble
MALFGKKSSDSSKSVAVPKAFTIQIDPSKFNLATKPSGPVHEQLETLKQKLTKLSSNVENNLMLVIRASTKKDKALASSAFEFDERYIQKGKFEVEYLTLAYLNFQQLDEADRKTVAHARMILKELERIAQFCLNIADKTEYIQLANIQVLHKDEYDLKLMGDDTAEMIKKAVEAFVSGNSKHATETLDMMKKIDDLYQKAVAKLKAEVNDSNIINSTGILSVVEHVHTCAEISCAIARHFC	soluble
MALHTVLIILSLLPMLEAQNPEHANFTIGEPITNETLSWLSDKWFFMGAAFRKLEYRQAIQTMQSEFFYLTTNLINDTIELRESQTIGDQCVYNSTHLGFQRENGTFSKYEGGVETFAHLIVLRKHGAFMLAFDLKDEKKRGLSLYAKRPDITPELQEVFQKAVTHVGMDESEIIFVDWKKDRCGQQEKKQLELGKETKKDPEEGQA	soluble
MALNNVSLSSGDQRSRVAYRSSHGDLRPRASALAMVSGDGFLVSRPEAIHLGPRQAVRPSVRAESRRVDGGGRSPREPDGRGRSRQARFSPYPIPAVEPDLLRSVLQQRLIALGGVIAARISV	soluble
MALPGNYAPEVLLPQIAEINARIYADVNNGVYKAGFATRQSVYEKAVMVLFRCMDELEQLLSRQRYLIGNCITEADWRIFTTLIRFDPVYHGHFKCNLRRLVDYPNLWAYTRELYQWPGVAETVNMQHIKEHYYRSHPTINLEHHHHHH	not soluble
